Data on one substance can be found in PMC12420816 (Nature Communications, 2025).

This test deals with SARS-CoV-2 nsp16 with uncleaved His6-tag (SARS-CoV-2) (UniProt P0DTD1). Description: native MS.

Regarding “SARS-CoV-2 nsp7-11 polyprotein, tag-free with native (authentic) termini (domain or fragment)”, the percent of signal as complex turned out to be 2%.
